This is an account of results in publication PMC13186708.

The target of this experiment is Alistipes sp. Cas12f (Al3Cas12f), wild type (Alistipes sp.). The experiment in a line: SEC; apo Al3Cas12f without gRNA on an S200i 10/300 GL column; 50 mM Tris-HCl pH 7.5, 250 mM NaCl, 10 mM MgCl2, 0.5 mM EDTA, 5% glycerol, 0.5 mM TCEP; peak at about 11.5 mL, near the 158 kDa standard. In general terms: Size exclusion chromatography separates by hydrodynamic size, large species first.

A word on the stoichiometry N: it is a count of units in the complex or per binding partner. The substance “Alistipes sp. Cas12f (Al3Cas12f), wild type (enzyme)” returned a stoichiometry N of 2.
